The target in assay [1] is T1, 重组人白介素-1β，R&D货号:840170 (recombinant human IL-1β standard of the sandwich ELISA) (human, UniProt P01584 117-269).
T1 construct: also called 标准样品; 人白介素-1β蛋白
Briefly: double-antibody sandwich ELISA, 10A10 capture and 1F3-biotin detection, human IL-1β at 100pg/mL. In general terms: In an ELISA, binding on a coated surface is turned into a signal by an enzyme label.

Assay [2] deals with T2, 重组人IL-1β蛋白 (recombinant human IL-1β protein, as used in the Gator BLI experiments) (human, UniProt P01584 117-269).
T2 construct: also called 人白介素-1β; 目的蛋白
In words: BLI (Gator Prime), affinity test.

Assay [3] addresses 重组人IL-1β蛋白 (recombinant human IL-1β protein, as used in the Gator BLI experiments) (human) (UniProt P01584). In words: BLI (Gator Prime), IL-1β on the probe saturated with 1F3, 10A10 as second antibody.

B1: 兔单克隆抗体1F3 (rabbit monoclonal antibody 1F3 against human IL-1β) (antibody, V domains shown)
VH: QSVEESGGRLVTPGTPLTLTCTVSGFSLSRNAISWVRQPPGKGLEWIGFISSYDTTYYATWAKGRFTISKTSTTVDLKIASPTTEDTATYFCARETGADNNSNFDIWGPGTLVTVSS
VL: AQVLTQTPSPVSAAVGGTVTINCQSSQSVSHNNWLAWYQQKPGQPPKLLIYDASKLASGVSSRFRGSGSGTQFTLTISGVQCDDAATYYCQGETFCSSADCNAFGGGTELVVKG
notes: In the BLI experiments it was unlabelled; also called 兔抗Human IL-1β单克隆抗体A; 1F3-biotin
With B1, the binding result in assay [1] and in assay [2] was “binds” throughout.

B2: 兔单克隆抗体10A10 (rabbit monoclonal antibody 10A10 against human IL-1β) (antibody, V domains shown)
VH: QSVEESGGRLVTPGTPLTLTCTVSGFSLSTYAMSWVRQAPGKGLEWIGIISGSGNTAYASWAKGRFTISKTSTTVDLKMTSPTTEDTATYFCARSYEDYANIWGPGTLVTVSS
VL: AQVLTQTPSSVSAAVGGTVTINCQASQSLYNNNELSWYQQKPGQPPKLLIYKASTLASGVSSRFKGSGSGTQFTLTISGVQCDDAATYYCQGDYSCRIADCYAFGGGTEVVVKG
As to B2, in assay [3], the shift值 turned out to be 0.214.

Source of the values: patent publication CN115772220A (WUHAN ABCLONAL INC, dated 2023).
